Assay [1] has as its target CD58 expressed on OVCAR-3 and HFLS-RA cells (human) (UniProt P19256). Nature of the assay: cell adhesion inhibition (Jurkat CD2 / CD58 cells); HFLS-RA cells.
The target is the same in assay [2]. Nature of the assay: cell adhesion inhibition (Jurkat CD2 / CD58 cells); OVCAR-3 cells.

This is an account of results in patent publication US20200347136A1, “CONSTRAINED CYCLIC PEPTIDES AS INHIBITORS OF THE CD2:CD58 PROTEIN-PROTEIN INTERACTION FOR TREATMENT OF DISEASES AND AUTOIMMUNE DISORDERS” (Board of Supervisors for the University of Louisiana System, priority 2019, published 2020).

Sequence of CD58 expressed on OVCAR-3 and HFLS-RA cells (human) (P19256 29-250): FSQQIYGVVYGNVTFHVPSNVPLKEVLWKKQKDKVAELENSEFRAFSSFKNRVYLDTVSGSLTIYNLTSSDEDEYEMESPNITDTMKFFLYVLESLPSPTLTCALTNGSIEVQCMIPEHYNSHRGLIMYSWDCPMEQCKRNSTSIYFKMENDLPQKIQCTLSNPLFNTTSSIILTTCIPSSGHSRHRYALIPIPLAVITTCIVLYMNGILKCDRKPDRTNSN

On to SFTI-wt (control), for which the IC50 in assay [1] and in assay [2] was more than 50 µM throughout.

Control: the IC50 in assay [1] and in assay [2] was more than 100 µM in each case.
